Measurements published in the supplement of paper PMC12667976.
± gives the standard error.

B1: library; numbered along this chain (parent)
chain: MATDAALRRLLRLHRTEIAVAVDSAFPLLHALADHDVVPEDKFQETLHLKEKEGCPQAFHALLSWLLTQDSTAILDFWRVLFKDYNLERYGRLQPILDSFPKDVDLSQPRKGRKPPAVPKALVPPPRLPTKRKASEEARAAAPAALTPRGTASPGSQLKAKPPKKPESSAEQQRLPLGNGIQTMSASVQRAVAMSSGDVPGARGAVEGILIQQVFESGGSKKCIQVGGEFYTPSKFEDSGSGKNKARSSSGPKPLVRAKGAQGAAPGGGEARLGQQGSVPAPLALPSDPQLHQKNEDECAVCRDGGELICCDGCPRAFHLACLSPPLREIPSGTWRCSSCLQATVQEVQPRAEEPRPQEPPVETPLPPGLRSAGEEVRGPPGEPLAGMDTTLVYKHLPAPPSAAPLPGLDSSALHPLLCVGPEGQQNLAPGARCGVCGDGTDVLRCTHCAAAFHWRCHFPAGTSRPGTGLRCRSCSGDVTPAPVEGVLAPSPARLAPGPAKDDTASHEPALHRDDLESLLSEHTFDGILQWAIQSMARPAAPFPS

Variants of: B1
Experiment: AIRE transcriptional activation functional score (insulin promoter-GFP; nonsense median 0, synonymous median 1) (normalised score); higher = higher AIRE activity (more reporter activation)
Settings: with insulin promoter-GFP reporter in HEK293
Outline: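 Functional scores come from comparing select with non-select enrichment of each variant and subtracting wild type. Codon-optimized AIRE NNN-codon libraries across three regions were integrated via Bxb1 recombinase into HEK293 landing-pad cells with an insulin core promoter-GFP reporter, and integrants sorted at day 7 were expanded 7 days before top 10% GFP and unselected populations were tile-sequenced. Variants needed 10 counts per million in non-select, and values were rescaled to nonsense median 0 and synonymous median 1 before averaging over biological replicates.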

Variant | AIRE transcriptional activation functional score
K221L | 0.328 ± 0.21
L66F | -0.101 ± 0.092
C302P | 0.251 ± 0.1
A170C | 1.24 ± 0.41
P401I | 0.809 ± 0.28
P401M | 0.689 ± 0.11
G527S | 0.639 ± 0.18
T334S | 0.928 ± 0.21
T334G | 1.23 ± 0.26
Q293A | 0.738 ± 0.16
Q293D | 0.479 ± 0.55
P252H | 0.544 ± 0.15
A25P | 0.792 ± 0.57
R316L | 0.804 ± 0.37
R336T | 0.895 ± 0.33
S241C | 1.11 ± 0.12
L519W | 0.904 ± 0.15
H458I | -0.227 ± 0.19
P499R | 0.761 ± 0.13
S187T | 1.17 ± 0.14
S168E | 0.606 ± 0.34
S168C | 1 ± 0.57
S168M | 1.47 ± 0.27
A373P | 1.13 ± 0.15

Variant | AIRE transcriptional activation functional score
A532C | -0.268 ± 0.071
E17M | 0.896 ± 0.27
L308K | 0.0443 ± 0.47
L308A | 1.06 ± 0.062
A33N | 1.58 ± 0.065
A403W | 1.72 ± 0.033
F43G | 0.413 ± 0.39
F100G | -0.223 ± 0.34
F100K | 0.809 ± 0.18
F100H | 0.644 ± 0.11
E517S | -0.144 ± 0.04
E517D | 1.25 ± 0.16
G424V | 1.25 ± 0.1
T147S | 0.771 ± 0.6
T147D | 0.817 ± 0.27
T147M | 1.19 ± 0.19
G408I | 0.636 ± 0.32
P357K | 0.713 ± 0.13
Q213V | -0.393 ± 0.15
L106G | -0.428 ± 0.48
P315W | 2.51 ± 0.075
P315V | 1.12 ± 0.34
A19E | 0.513 ± 0.43
E383I | 0.922 ± 0.27

Variant | AIRE transcriptional activation functional score
E53V | 1.36 ± 0.5
A121E | 1.35 ± 0.18
D304E | 0.883 ± 0.2
D304P | 0.387 ± 0.11
P405V | 1.21 ± 0.08
L341S | 0.767 ± 0.29
I309M | 0.866 ± 0.14
V37R | 0.122 ± 0.4
V37A | -0.162 ± 0.092
K42V | 0.822 ± 0.85
H292G | 1.12 ± 0.18
H292R | 0.856 ± 0.19
R513E | -0.344 ± 0.066
H60P | -0.793 ± 0.31
V226C | 0.347 ± 0.12
V206C | 0.542 ± 0.22
V206R | 0.478 ± 0.33
C299I | 0.55 ± 0.37
C299H | 0.488 ± 0.068
P350I | 1.14 ± 0.2
S250D | 0.427 ± 0.25
S250G | 0.835 ± 0.23
K253P | 0.292 ± 0.33
K253T | 0.479 ± 0.19

Variant | AIRE transcriptional activation functional score
K253D | -0.542 ± 0.09
K253G | 0.631 ± 0.2
P331E | 0.93 ± 0.17
V104A | -0.013 ± 0.14
L283P | 0.953 ± 0.21
G431D | 0.852 ± 0.23
V199H | 0.599 ± 0.63
V199D | 0.863 ± 0.13
V22R | 0.528 ± 0.83
T232C | 0.594 ± 0.23
T232P | 0.894 ± 0.34
D288M | 1.31 ± 0.15
L128I | 1.19 ± 0.19
P368F | 1.63 ± 0.14
G440L | 0.997 ± 0.14
E88F | 0.0961 ± 0.24
E88C | 0.444 ± 0.18
P39L | -0.0747 ± 0.48
D198C | 0.704 ± 0.16
D198Q | 0.627 ± 0.15
D198E | 1.2 ± 0.13
V188E | 0.556 ± 0.35
K294V | 0.546 ± 0.13
A489K | 0.705 ± 0.14

Variant | AIRE transcriptional activation functional score
P542F | 0.923 ± 0.081
P542H | 0.651 ± 0.037
A142T | 0.704 ± 0.47
K243W | 1.3 ± 0.024
K50H | 0.46 ± 0.27
I209C | -0.0153 ± 0.21
P27N | 0.263 ± 0.048
P430E | 1.01 ± 0.11
P430R | 0.778 ± 0.23
E376H | 1.36 ± 0.072
E376S | 1.08 ± 0.19
G155H | 1.71 ± 0.16
V345K | 1.22 ± 0.21
R127E | 0.317 ± 0.17
G251K | 1.05 ± 0.051
G251L | 1.21 ± 0.22
P200Y | 0.0754 ± 0.17
C340I | 1.22 ± 0.088
P367K | 1.04 ± 0.03
P367C | 1.47 ± 0.12
A193E | 0.394 ± 0.18
A193D | 1.03 ± 0.043
T504G | 0.95 ± 0.17
C437K | 0.35 ± 0.19

Variant | AIRE transcriptional activation functional score
P492H | 0.521 ± 0.11
A496T | 0.81 ± 0.34
A496W | 1.64 ± 0.071
Q342C | 1.09 ± 0.16
A117L | 1.13 ± 0.4
A117Q | 1.44 ± 1
A450V | 1.19 ± 0.3
A186P | 0.846 ± 0.17
V393G | 1.28 ± 0.04
E347R | 1.23 ± 0.15
D23E | 1.02 ± 0.71
G274P | 0.734 ± 0.42
G274T | 0.86 ± 0.15
G387W | 1.52 ± 0.051
P56D | -0.102 ± 0.4
P154T | 1.35 ± 0.7
P154C | 0.692 ± 0.45
P154W | 1.13 ± 0.17
N179M | 1.62 ± 0.043
N179P | 1.71 ± 0.12
S402D | 0.871 ± 0.19
R92E | -0.432 ± 0.48
L327A | 1.07 ± 0.3
S287M | 1.29 ± 0.072

Variant | AIRE transcriptional activation functional score
P361D | 1.15 ± 0.28
F77Y | 0.195 ± 0.18
L13H | 0.357 ± 0.16
L13W | 0.425 ± 0.079
L13N | -0.209 ± 0.12
L13E | 0.79 ± 0.053
Q69N | -0.248 ± 0.65
S248N | 0.778 ± 0.22
G477H | 1.41 ± 0.098
P326T | 0.923 ± 0.14
S239E | 0.783 ± 0.084
R174S | 0.758 ± 0.32
Q358R | 1.17 ± 0.2
G469R | 0.913 ± 0.23
A140P | 1.56 ± 0.47
A134T | -0.16 ± 0.69
E270N | 1.01 ± 0.45
E207A | -0.0187 ± 0.22
E207D | 0.788 ± 0.12
C223V | 0.923 ± 0.11
C223I | 0.0416 ± 0.48
C223N | 0.407 ± 0.086
C223F | 0.324 ± 0.39
